Columns and labels:
Assay in all cases: flow cytometry on transiently transfected cells
[1] = target: T1, TNFR2 on transiently transfected cells (human, UniProt P20333 23-461)
T1 sequence: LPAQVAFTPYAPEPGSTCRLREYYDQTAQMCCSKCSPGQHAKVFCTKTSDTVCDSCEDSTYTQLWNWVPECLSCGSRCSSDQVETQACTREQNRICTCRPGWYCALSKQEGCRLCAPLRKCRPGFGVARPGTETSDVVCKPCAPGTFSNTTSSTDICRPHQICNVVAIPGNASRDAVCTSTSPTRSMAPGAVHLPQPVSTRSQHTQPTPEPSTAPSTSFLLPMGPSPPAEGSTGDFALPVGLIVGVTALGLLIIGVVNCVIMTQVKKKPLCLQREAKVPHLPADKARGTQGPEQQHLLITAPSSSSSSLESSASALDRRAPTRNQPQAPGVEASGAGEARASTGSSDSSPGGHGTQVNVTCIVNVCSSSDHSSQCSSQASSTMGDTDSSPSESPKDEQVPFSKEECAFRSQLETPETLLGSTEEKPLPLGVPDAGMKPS
Method: (§1) One million cells, in 0.1 ml of FACS buffer (PBS, 0.1% BSA, 0.1% NaN₃), were incubated with 0.1-1 microgram of protein or antibody at RT for 15 min. The cells were washed with 3 ml of FACS buffer, reacted with biotinylated primary antibody, and stained with PE-conjugated secondary antibody at RT for 15 min. Cells were then washed again, resuspended in 0.5 microgram/ml of propidium iodide, and live cells were gated and analyzed on a FACScan using the CellQuest software (BD Biosciences).

[2] = target: T2, LTβR on transiently transfected cells (UniProt P36941 31-435, limits assumed)
T2 construct: whole, on cells
Method: as §1

[3] = target: T3, 4-1BB on transiently transfected cells (UniProt Q07011 24-255)
T3 construct: whole, on cells
Method: as §1

[4] = target: T4, CD27 on transiently transfected cells (UniProt P26842 20-260, limits assumed)
T4 construct: whole, on cells
T4 sequence (looked up): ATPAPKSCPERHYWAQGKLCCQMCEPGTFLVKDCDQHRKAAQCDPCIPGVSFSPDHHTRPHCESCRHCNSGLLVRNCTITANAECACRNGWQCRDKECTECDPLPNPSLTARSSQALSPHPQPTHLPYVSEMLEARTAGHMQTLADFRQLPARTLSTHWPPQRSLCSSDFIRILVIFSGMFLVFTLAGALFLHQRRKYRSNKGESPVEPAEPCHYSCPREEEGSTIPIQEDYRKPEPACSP
Method: as §1

[5] = target: T5, DR6 on transiently transfected cells (UniProt O75509 42-655, limits assumed)
T5 construct: whole, on cells
T5 sequence (looked up): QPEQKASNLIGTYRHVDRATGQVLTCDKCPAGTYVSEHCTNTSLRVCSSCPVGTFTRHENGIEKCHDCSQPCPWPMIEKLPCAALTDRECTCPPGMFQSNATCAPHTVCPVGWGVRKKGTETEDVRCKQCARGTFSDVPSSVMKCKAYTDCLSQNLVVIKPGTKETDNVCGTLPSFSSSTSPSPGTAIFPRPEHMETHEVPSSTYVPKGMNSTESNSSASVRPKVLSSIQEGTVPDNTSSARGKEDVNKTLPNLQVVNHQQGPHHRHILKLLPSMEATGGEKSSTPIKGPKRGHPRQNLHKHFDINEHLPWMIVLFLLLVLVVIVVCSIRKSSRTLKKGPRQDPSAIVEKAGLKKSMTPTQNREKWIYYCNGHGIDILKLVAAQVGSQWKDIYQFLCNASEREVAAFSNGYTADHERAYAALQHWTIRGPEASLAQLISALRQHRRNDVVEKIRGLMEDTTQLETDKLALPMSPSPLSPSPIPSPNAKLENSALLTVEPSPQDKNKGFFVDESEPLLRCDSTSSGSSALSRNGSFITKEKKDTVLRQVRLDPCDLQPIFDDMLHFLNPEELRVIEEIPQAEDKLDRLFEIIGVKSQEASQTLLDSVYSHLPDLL
Method: as §1

[6] = target: T6, HveA on transiently transfected cells (Homo sapiens (Human), UniProt Q92956 39-283)
T6 construct: also called HVEM/TR2
T6 sequence: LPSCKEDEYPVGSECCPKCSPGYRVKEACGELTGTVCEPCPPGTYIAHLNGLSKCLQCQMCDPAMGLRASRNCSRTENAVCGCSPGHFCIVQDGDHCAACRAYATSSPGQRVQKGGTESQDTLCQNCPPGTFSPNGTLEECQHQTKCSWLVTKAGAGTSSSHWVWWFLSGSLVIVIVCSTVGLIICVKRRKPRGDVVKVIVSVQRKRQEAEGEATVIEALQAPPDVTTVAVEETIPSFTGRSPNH
Method: as §1

Measured: binding result

T3 sequence (Q07011 24-255): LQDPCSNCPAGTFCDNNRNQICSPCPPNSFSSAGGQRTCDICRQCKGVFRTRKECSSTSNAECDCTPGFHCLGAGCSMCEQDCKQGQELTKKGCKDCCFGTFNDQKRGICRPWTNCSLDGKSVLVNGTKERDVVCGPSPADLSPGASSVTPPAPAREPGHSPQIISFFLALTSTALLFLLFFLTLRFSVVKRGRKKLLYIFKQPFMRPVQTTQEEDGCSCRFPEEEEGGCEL
T2 sequence (P36941 31-435 limits assumed): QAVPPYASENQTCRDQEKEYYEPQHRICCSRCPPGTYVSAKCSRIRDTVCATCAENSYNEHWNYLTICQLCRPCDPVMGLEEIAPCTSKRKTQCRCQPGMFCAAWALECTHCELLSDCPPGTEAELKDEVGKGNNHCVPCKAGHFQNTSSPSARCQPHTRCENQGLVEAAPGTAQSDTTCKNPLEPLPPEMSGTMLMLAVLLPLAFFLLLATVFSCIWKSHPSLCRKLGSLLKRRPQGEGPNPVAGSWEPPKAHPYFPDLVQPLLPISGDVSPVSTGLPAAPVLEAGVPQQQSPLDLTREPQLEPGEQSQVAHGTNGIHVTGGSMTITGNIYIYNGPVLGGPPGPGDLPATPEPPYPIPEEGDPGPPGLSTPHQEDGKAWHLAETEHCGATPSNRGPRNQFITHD

B1: FLAG-tagged soluble TNF-gamma-beta (aa 72-251) (ligand, human)
chain: DYKDDDDKLKGQEFAPSHQQVYAPLRADGDKPRAHLTVVRQTPTQHFKNQFPALHWEHELGLAFTKNRMNYTNKFLLIPESGDYFIYSQVTFRGMTSECSEIRQAGRPNKPDSITVVITKVTDSYPEPTQLLMGTKSVCEVGSNWFQPIYLGAMFSLQEGDKLMVNVSDISLVDYTKEDKTFFGAFLL
notes: also called FLAG-TNF-gamma-beta; FLAG-TL1β
no binding: [1] | [2] | [3] | [4] | [5] | [6]
